From the supplement of paper PMC11908140

B1: library; numbered along this chain (parent)
chain: MRKPRAAVGSGHRKQAASQEGRQKHAKNNSQAKPSACDGLARQPEEVVLQASVSSYHLFRDVAEVTAFRGSLLSWYDQEKRDLPWRRRAEDEMDLDRRAYAVWVSEVMLQQTQVATVINYYTGWMQKWPTLQDLASASLEEVNQLWAGLGYYSRGRRLQEGARKVVEELGGHMPRTAETLQQLLPGVGRYTAGAIASIAFGQATGVVDGNVARVLCRVRAIGADPSSTLVSQQLWGLAQQLVDPARPGDFNQAAMELGATVCTPQRPLCSQCPVESLCRARQRVEQEQLLASGSLSGSPDVEECAPNTGQCHLCLPPSEPWDQTLGVVNFPRKASRKPPREESSATCVLEQPGALGAQILLVQRPNSGLLAGLWEFPSVTWEPSEQLQRKALLQELQRWAGPLPATHLRHLGEVVHTFSHIKLTYQVYGLALEGQTPVTTVPPGARWLTQEEFHTAAVSTAMKKVFRVYQGQQPGTCMGSKRSQVSSPCSRKKPRMGQQVLDNFFRSHISTDAHSLNSAAQ

Variants of: B1
Assay: 8OG:A repair function score (normalized; synonymous = 0, nonsense = -1) (normalized log-likelihood score); higher = more repair activity (WT-like)
Conditions: with 8OG:A DNA repair reporter (GFP) in HEK-293 MUTYH KO cells
How it was run: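 GFP+ (repair) and GFP− bins of viable mCherry+ cells were collected at 72 h from MUTYH knockout HEK-293 cells bearing lentiviral MUTYH cDNA NNN codon-scan libraries in 10 pg/ml doxycycline, co-transfected with an 8OG:A GFP repair reporter and mCherry. Tile amplicons were sequenced, and per-tile Rosace fitness scores were normalized to a repair function score anchored on synonymous and nonsense distributions. Synonymous medians were set to 0 and nonsense to -1, with variants under 300 counts per million at the start removed.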
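Further: cells sorted at 72 h after reporter transfection.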

8OG:A repair function score: each site, then its substitutions
A461: G 0.00127, D -0.732, F -0.265, C -0.0899, E -0.842
S459: H -0.136, W -0.631, C -0.291, E -1.11, P -0.197, T -0.392, A -0.218, L -0.866, R -1.13, K -1.03, M -0.693, N -0.679, I -0.53, F -0.45, V -0.746, Q -0.749, D -0.823, Y -0.268, G -0.212
T460: C -0.0915, G -0.0856, Y -0.219, Q -0.131, S -0.019, L -0.235, E -0.212, W -0.305, K -0.0077, P -0.347, F -0.157, A -0.00746, H -0.38, R -0.0566, I -0.102, V -0.029, D -0.312, M -0.152, N -0.00346
G444: H -0.155, K -0.0942, L -0.255, Y -0.204, D -0.275, R -0.119, A -0.284, N -0.198, T -0.00488, P -0.189, V -0.448, Q -0.113, I -0.373, W -0.444, E -0.0932, F -0.32, C -0.242, S -0.291, M -0.298
V458: D -0.952, A -0.667, M -0.204, T -0.214, Q -0.711, R -0.663, C -0.27, P -0.535, G -0.853, W -0.709, S -0.192, N -0.786, L -0.294, H -0.592, Y -0.724, K -0.57, I -0.0811, E -0.975, F -0.4
F453: Q -0.887, T -0.694, K -0.87, Y -0.106, L -0.306, D -1.22, W -0.274, H -0.758, N -1.25, I -0.334, A -0.66, P -0.896, R -1.09, C -0.791, S -0.421, G -0.893, M -0.51, E -1.1, V -0.184
E451: G -0.0413, P -0.158, S -0.131, F -0.282, I -0.186, V -0.135, M 0.0404, Q -0.157, N 0.26, D -0.178, W -0.143, A -0.0912, K -0.241, R 0.0453, C -0.198, H 0.0926, L -0.179, Y 0.131, T -0.12
W447: C -1.09, P -0.941, D -1.18, Q -1.16, E -1.14, A -0.968, S -1.01, R -0.794, M -0.801, K -0.937, I -0.784, Y -0.455, V -0.846, N -0.921, L -0.567, T -1.01, G -1.04, H -0.881, F -0.355
E452: K -0.211, A -0.387, S -0.0485, N -0.395, P -0.856, Y -0.442, C -0.0884, Q -0.335, M -0.205, W -0.631, L -0.252, T 0.0217, H -0.275, G -0.228, R -0.0533, D -0.0961, F -0.387, I -0.47, V -0.351
A456: D -0.523, K -0.248, I -0.12, V -0.16, Y -0.476, T -0.365, N -0.487, S -0.267, L -0.287, E -0.405
